Assay results from patent US8916149B2, “Preventing and treating sepsis” (University of Rochester, priority 2008, dated 2014).

Tested on: β1 and β3 integrin expressing HEK293T cells
Assay: Yeast surface display binding of mutant APCs on HEK293 cells
Design: species or system human
From the text: A broad-range of hosts and scaffolds based on ribosome display, phage display, and cell-surface display are used widely as systems to implement directed evolution (Hoogenboom, Nat. Biotechnol. 23:1105 (2005)). Among the cell surface display systems based on microbial and eukaryotic hosts, the yeast system offers the unique advantage of eukaryotic machinery that enables post-translational modification, glycosylation, and disulfide isomerization (Wittrup, Curr. Opin. Biotechnol. 12:392 (2001)). […] The yeast display system that was used employs the α-agglutinin yeast adhesion receptor to display recombinant proteins on cell surface of S. cerevisiae. The receptor consists of two proteins, Aga1 and Aga2 (FIG. 6). Aga1 is secreted and becomes covalently attached to β-glucan in the extracellular matrix of the yeast cell wall. Aga2 binds to Aga1 through two disulfide bonds, making it possible to express a protein of interest fused to Aga2.
Mixtures of 1 μg cDNA library and 0.5 μg of the Nhe1/BamH1 linearized pCTCON vector in 5 μl were transformed into 10^8 yeast cells by electroporation, which lead to ˜10^6 diversity in the library. Inside the cells, the cDNA library was recombined into the vector by the endogenous Gap repair protein. The yeast library of the human protein C was activated by thrombin. […]

B1: KR146/147GG+R177G: APC with combined substitutions K146G, R147G and R177G (protein)
chain: ANSFLEELRHSSLERECIEEICDFEEAKEIFQNVDDTLAFWSKHVDGDQCLVLPLEHPCASLCCGHGTCIDGIGSFSCDCRSGWEGRFCQREVSFLNCSLDNGGCTHYCLEEVGWRRCSCAPGYKLGDDLLQCHPAVKFPCGRPWGGMEKKRSHLKRDTEDQEDQVDPRLIDGKMTGRGDSPWQVVLLDSKKKLACGAVLIHPSWVLTAAHCMDESKKLLVRLGEYDLRRWEKWELDLDIKEVFVHPNYSKSTTDNDIALLHLAQPATLSQTIVPICLPDSGLAERELNQAGQETLVTGWGYHSSREKEAKRNRTFVLNFIKIPVVPHNECSEVMSNMVSENMLCAGILGDRQDACEGDSGGPMVASFHGTWFLVGLVSWGEGCGLLHNYGVYTKVSRYLDWIHGHIRDKEAPQKSWAP
- binding of yeast expressing mutant APC on HEK293 cells compared to WT APC: further enhanced
